No end group written: not given here.
Biological target: purified HLA A*03:01 class I MHC molecules
Assay: radioligand binding

Row | Binder | IC50 [nM]
1 | DSYIIIGVEPGQLK (not fully specified) | 2000
2 | IIIGVEPGQL (not fully specified) | > 5000
